Measured values reported in patent publication WO2001068708A2 (dated 2001).
Values belong to the binder of their own block, whether it stands above or below them.

Legend:
[1] = biological target: T1, fibroblast activating protein alpha (FAPα), cell surface-bound (human, UniProt Q12884 1-760); test: binding to FAP+ cells, cell analyser, half maximal saturation
T1 construct: whole, on cells; Also used as the target of the FAP-specific immunohistological staining of tumour cryo-sections; also called FAP+ cells; FAP overexpressing fibrosarcoma cells (HT1080)
T1 sequence (looked up): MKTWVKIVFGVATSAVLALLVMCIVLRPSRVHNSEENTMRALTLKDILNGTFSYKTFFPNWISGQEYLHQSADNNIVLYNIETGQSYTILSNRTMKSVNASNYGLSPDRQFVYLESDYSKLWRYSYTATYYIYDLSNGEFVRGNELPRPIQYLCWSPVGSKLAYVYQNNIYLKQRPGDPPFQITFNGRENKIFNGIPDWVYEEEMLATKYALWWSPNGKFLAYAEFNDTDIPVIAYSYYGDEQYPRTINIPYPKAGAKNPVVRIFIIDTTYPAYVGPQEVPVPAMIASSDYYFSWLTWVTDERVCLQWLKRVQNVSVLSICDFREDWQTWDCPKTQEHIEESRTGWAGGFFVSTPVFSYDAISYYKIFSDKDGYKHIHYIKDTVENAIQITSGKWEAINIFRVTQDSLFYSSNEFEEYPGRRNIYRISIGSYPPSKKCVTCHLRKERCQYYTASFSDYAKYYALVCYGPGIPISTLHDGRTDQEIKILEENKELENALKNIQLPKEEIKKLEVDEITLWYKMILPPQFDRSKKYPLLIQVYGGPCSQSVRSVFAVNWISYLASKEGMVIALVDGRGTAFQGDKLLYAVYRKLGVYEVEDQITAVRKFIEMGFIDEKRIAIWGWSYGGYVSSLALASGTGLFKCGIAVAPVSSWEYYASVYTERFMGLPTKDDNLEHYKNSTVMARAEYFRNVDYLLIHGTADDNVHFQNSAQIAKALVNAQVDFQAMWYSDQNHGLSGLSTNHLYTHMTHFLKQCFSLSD

[2] = biological target: T2, fibroblast activating protein alpha (FAPα), purified / immobilised antigen (human, UniProt Q12884 27-760, limits assumed); test: sandwich ELISA, half maximal saturation of binding (SC50), c-myc tag detection
T2 construct: Antigen coated on ELISA wells and immunotubes; The construct is not described; also called human FAP; immobilized FAP
T2 sequence (looked up): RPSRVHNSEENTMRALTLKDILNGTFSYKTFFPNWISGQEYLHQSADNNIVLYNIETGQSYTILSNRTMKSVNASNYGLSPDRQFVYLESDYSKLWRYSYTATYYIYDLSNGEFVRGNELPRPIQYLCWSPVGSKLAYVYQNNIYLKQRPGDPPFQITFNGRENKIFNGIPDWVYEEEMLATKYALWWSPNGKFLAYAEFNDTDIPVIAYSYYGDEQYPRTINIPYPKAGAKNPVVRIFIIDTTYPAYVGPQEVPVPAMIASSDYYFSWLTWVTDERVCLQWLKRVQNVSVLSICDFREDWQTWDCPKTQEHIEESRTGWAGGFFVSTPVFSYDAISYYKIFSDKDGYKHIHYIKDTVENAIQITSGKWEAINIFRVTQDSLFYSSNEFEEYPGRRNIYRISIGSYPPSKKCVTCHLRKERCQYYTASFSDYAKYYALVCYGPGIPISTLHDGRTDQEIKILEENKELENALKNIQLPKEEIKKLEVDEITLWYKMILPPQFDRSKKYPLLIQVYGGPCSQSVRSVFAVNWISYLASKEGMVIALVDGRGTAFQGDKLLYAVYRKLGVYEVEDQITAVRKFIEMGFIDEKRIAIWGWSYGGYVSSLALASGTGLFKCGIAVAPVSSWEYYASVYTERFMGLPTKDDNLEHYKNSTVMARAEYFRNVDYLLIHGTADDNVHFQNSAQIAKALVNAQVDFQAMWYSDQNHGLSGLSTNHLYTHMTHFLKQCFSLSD

[3] = biological target: T1, fibroblast activating protein alpha …; test: flow cytometry on FAP overexpressing HT1080 cells, half maximal saturation (SC50)

EC50 [1]: 8 to 12 nM
B1: scFv #13 as bivalent in minibody format (other)
chain: QVQLVESGGTLVQPGGSLRLSCAASGFTFSSYAMSWIRQAPGKGLEWVSGISASGGYIDYADSVKGRVTISRDNSKNMAYLQMSSLRAEDTALYYCAKGGNYQMLLDHWGQGTLVTVSSASTKGPKLEEGEFSEARVDIQMTQSPSSLSASTGDRVTITCRASQDISSYLAWYQQAPGKAPHLLMSGATTLQTGVPSRFSGSGSGTDFTLTITSLQSEDFATYYCQQYYIYPPTFGQGTRVEIKRTVAAPSVFAA

EC50 [2]: 20 nM | EC50 [3]: 20 nM
B2: scFv F19 (parental murine scFv) (scFv, V domains shown)
VH: EVQLQQSGPELVKPGASVKMSCKTSRYTFTEYTIHWVRQSHGKSLEWIGGINPNNGIPNYNQKFKGRATLTVGKSSSTAYMELRSLTSEDSAVYFCARRRIAYGYDEGHAMDYWGQGTSVTVSS
VL: DIVMSQSPSSLAVSVGEKVTMSCKSSQSLLYSRNQKNYLAWFQQKPGQSPKLLIFWASTRESGVPDRFTGSGFGTDFNLTISSVQAEDLAVYDCQQYFSYPLTFGAGTKLELK

EC50 [1]: 32 nM
B3: scFv #50 as bivalent in minibody format (other)
chain: QVQLVESGGGLVQPGGSLRLSCAASGFTFSNYWMSWVRQAPGKGLEWVANIKQDGSEKYYVDSVKGRFTISRDNAKNSLYLQMNSLRAEDTAVYYCARGSLCTDGSCPTIGPGPNWGQGTLVTVSSAPTKAPKLEEGEFSEARVDIQMTQSPSSLSASTGDRVTITCRASQDISSYLAWYQQAPGKAPHLLMSGATTLQTGVPSRFSGSGSGTDFTLTITSLQSEDFATYYCQQYYIYPPTFGQGTRVEIKRTVAAPSVFAA
